Positions count from the first letter of the chain named.
T1: human BCMA (human, UniProt Q02223 1-54)
T1 construct: also called huBCMA; hBCMA
T1 sequence: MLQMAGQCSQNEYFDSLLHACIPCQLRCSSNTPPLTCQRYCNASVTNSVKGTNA

B1: L3.PY/P6E01 (antibody, V domains shown)
VH: EVQLLESGGGLVQPGGSLRLSCAASGFTFGSYAMTWVRQAPGKGLEWVSAISGSGGNTFYADSVKGRFTISRDNSKNTLYLQMNSLRAEDTAVYYCARVSPIASGMDYWGQGTLVTVSS
VL: EIVLTQSPGTLSLSPGERATLSCRASQSVSSSYLAWYQQKPGQAPRLLIYGASSRATGIPDRFSGSGSGTDFTLTISRLEPEDFAVYYCQHYPYPPSFTFGQGTKVEIK
notes: IgG in the assay
B2: L3.PY/L1.PS/H3.YA (antibody, V domains shown)
VH: B1 VH with A103Y, S104A
VL: B1 VL with L34P, A35S
notes: IgG in the assay
B3: L3.PY/L1.PS/H2.YQ (antibody, V domains shown)
VH: B1 VH with G53Y, S54Q
VL: B1 VL with L34P, A35S
notes: IgG in the assay
B4: L3.PY/L3.KY/P6E01 (antibody, V domains shown)
VH: B1 VH
VL: B1 VL with Q90K, H91Y
notes: IgG in the assay
B5: L3.PY/L3.KF/P6E01 (antibody, V domains shown)
VH: B1 VH
VL: B1 VL with Q90K, H91F
notes: IgG in the assay
B6: L3.PY/L1.PS/H3.TAQ (antibody, V domains shown)
VH: B1 VH with A97T, S104A, G105Q
VL: B1 VL with L34P, A35S
notes: IgG in the assay
B7: L3.PY/L1.PS/H3.AE (antibody, V domains shown)
VH: B1 VH with S104A, G105E
VL: B1 VL with L34P, A35S
notes: IgG in the assay
B8: L3.PY/L1.PS/P6E01 (antibody, V domains shown)
VH: B1 VH
VL: B1 VL with L34P, A35S
notes: IgG in the assay
B9: L3.PY/L1.PS/H2.QL (antibody, V domains shown)
VH: B1 VH with S63Q, V64L
VL: B1 VL with L34P, A35S
notes: IgG in the assay
B10: L3.PY/L1.PS/H3.AQ (antibody, V domains shown)
VH: B1 VH with S104A, G105Q
VL: B1 VL with L34P, A35S
notes: IgG in the assay
B11: L3.PY/L1.PS/H2.QR (antibody, V domains shown)
VH: B1 VH with S63Q, V64R
VL: B1 VL with L34P, A35S
notes: IgG in the assay
B12: L3.PY/L1.PS/H2.LT (antibody, V domains shown)
VH: B1 VH with G53L, S54T
VL: B1 VL with L34P, A35S
notes: IgG in the assay
B13: L3.KW/P6E01 (antibody, V domains shown)
VH: B1 VH
VL: B1 VL with Q90K, P93G, Y94W
notes: IgG in the assay
B14: L1.GDF/L3.NY/P6E01 (antibody, V domains shown)
VH: B1 VH
VL: B1 VL with S30G, S31D, S32F, P93N
notes: IgG in the assay
B15: L1.GDF/L3.NY/H3.AL (antibody, V domains shown)
VH: B1 VH with S104A, G105L
VL: B1 VL with S30G, S31D, S32F, P93N
notes: IgG in the assay
B16: L1.GDF/L3.NY/H3.AP (antibody, V domains shown)
VH: B1 VH with S104A, G105P
VL: B1 VL with S30G, S31D, S32F, P93N
notes: IgG in the assay
B17: P6E01/P6E01 (antibody, V domains shown)
VH: B1 VH
VL: not shown
notes: IgG in the assay; also called P6E01_VHVL
B18: P6E01/H3.AQ (antibody, V domains shown)
VH: B1 VH with S104A, G105Q
VL: not shown
notes: IgG in the assay
B19: L1.LGF/L3.NY/H3.AP (antibody, V domains shown)
VH: B1 VH with S104A, G105P
VL: B1 VL with V29L, S30G, S32F, P93N
notes: IgG in the assay
B20: L1.LGF/L3.NY/P6E01 (antibody, V domains shown)
VH: B1 VH
VL: B1 VL with V29L, S30G, S32F, P93N
notes: IgG in the assay
B21: L3.NY/P6E01 (antibody, V domains shown)
VH: B1 VH
VL: B1 VL with P93N
notes: IgG in the assay
B22: L1.GDF/L3.PY/H3.AQ (antibody, V domains shown)
VH: B1 VH with S104A, G105Q
VL: B1 VL with S30G, S31D, S32F
notes: IgG in the assay
B23: L1.LGF/L3.KW/H3.AQ (antibody, V domains shown)
VH: B1 VH with S104A, G105Q
VL: B1 VL with V29L, S30G, S32F, Q90K, P93G, Y94W
notes: IgG in the assay
B24: L1.GDF/L3.NY/H3.AQ (antibody, V domains shown)
VH: B1 VH with S104A, G105Q
VL: B1 VL with S30G, S31D, S32F, P93N
notes: IgG in the assay
B25: L1.GDF/L3.KW/H3.AQ (antibody, V domains shown)
VH: B1 VH with S104A, G105Q
VL: B1 VL with S30G, S31D, S32F, Q90K, P93G, Y94W
notes: IgG in the assay
B26: L1.LGF/L3.PY/H3.AQ (antibody, V domains shown)
VH: B1 VH with S104A, G105Q
VL: B1 VL with V29L, S30G, S32F
notes: IgG in the assay
B27: L1.LGF/L3.KW/H3.AP (antibody, V domains shown)
VH: B1 VH with S104A, G105P
VL: B1 VL with V29L, S30G, S32F, Q90K, P93G, Y94W
notes: IgG in the assay
B28: L1.LGF/L3.NY/H3.AQ (antibody, V domains shown)
VH: B1 VH with S104A, G105Q
VL: B1 VL with V29L, S30G, S32F, P93N
notes: IgG in the assay
B29: L1.GDF/L3.KW/H3.AL (antibody, V domains shown)
VH: B1 VH with S104A, G105L
VL: B1 VL with S30G, S31D, S32F, Q90K, P93G, Y94W
notes: IgG in the assay
B30: L1.LGF/L3.KW/H3.AL (antibody, V domains shown)
VH: B1 VH with S104A, G105L
VL: B1 VL with V29L, S30G, S32F, Q90K, P93G, Y94W
notes: IgG in the assay
B31: L1.GDF/L3.KW/H3.AP (antibody, V domains shown)
VH: B1 VH with S104A, G105P
VL: B1 VL with S30G, S31D, S32F, Q90K, P93G, Y94W
notes: IgG in the assay
B32: L1.LGF/L3.PY/H3.AP (antibody, V domains shown)
VH: B1 VH with S104A, G105P
VL: B1 VL with V29L, S30G, S32F
notes: IgG in the assay
B33: L1.LGF/L3.KW/P6E01 (antibody, V domains shown)
VH: B1 VH
VL: B1 VL with V29L, S30G, S32F, Q90K, P93G, Y94W
notes: IgG in the assay
B34: L1.LGF/L3.NY/H3.AL (antibody, V domains shown)
VH: B1 VH with S104A, G105L
VL: B1 VL with V29L, S30G, S32F, P93N
notes: IgG in the assay

Each binder was assayed against T1, human BCMA (assay: SPR, immobilised IgG, 37° C).

Row | Binder | T½
1 | B1 | 5.91 min
2 | B2 | 1.28 min
3 | B3 | 2.69 min
4 | B4 | 10.7 min
5 | B5 | 5.56 min
6 | B6 | 4.7 min
7 | B7 | 7.93 min
8 | B8 | 10.2 min
9 | B9 | 0.04 min
10 | B10 | 6.46 min
11 | B11 | 0.11 min
12 | B12 | 2.49 min

Each binder was assayed against T2, cyBCMA (cynomolgus, UniProt A0A2K5UD97 1-53) (assay: SPR, immobilised IgG, 37° C).
T2 construct: Soluble analyte in SPR; construct not described; also called cyno BCMA
T2 sequence (A0A2K5UD97 entry or part of it): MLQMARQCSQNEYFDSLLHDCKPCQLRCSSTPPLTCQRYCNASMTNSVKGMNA

Row | Binder | T½
13 | B1 | 0.88 min
14 | B2 | 1.16 min
15 | B3 | 3.09 min
16 | B4 | 2.3 min
17 | B5 | 1.39 min
18 | B6 | 2.09 min
19 | B7 | 2.8 min
20 | B8 | 1.91 min
21 | B9 | 18.2 min
22 | B10 | 2.67 min
23 | B11 | 17.2 min
24 | B12 | 2.81 min

Each binder was assayed against T1, human BCMA (assay: SPR, immobilised IgG, 25° C).

Row | Binder | T½
25 | B1 | 50.7 min
26 | B13 | 36.7 min
27 | B14 | 1.95 min
28 | B15 | 2.87 min
29 | B16 | 8.21 min
30 | B17 | 2.8 min
31 | B18 | 33.5 min
32 | B19 | 21.7 min
33 | B20 | 2.63 min
34 | B21 | 30.1 min
35 | B22 | 0.86 min
36 | B23 | 12.1 min
37 | B24 | 16 min
38 | B25 | 3.32 min
39 | B26 | 13 min
40 | B27 | 5.1 min
41 | B28 | 38.6 min
42 | B29 | 2.96 min
43 | B30 | 9.4 min
44 | B31 | 2.51 min
45 | B32 | 11.9 min
46 | B33 | 1.53 min
47 | B34 | 11.9 min

These binders were tested against T2, cyBCMA (assay: SPR, immobilised IgG, 25° C).

Row | Binder | T½
48 | B1 | 3.9 min
49 | B13 | 4.5 min
50 | B14 | 1.5 min
51 | B15 | 0.5 min
52 | B16 | 1.6 min
53 | B19 | 2.1 min
54 | B20 | 1.1 min
55 | B21 | 4 min
56 | B22 | 0.7 min
57 | B23 | 3.3 min
58 | B24 | 8.5 min
59 | B25 | 2 min
60 | B26 | 2.4 min
61 | B27 | 0.7 min
62 | B28 | 7.8 min
63 | B29 | 0.6 min
64 | B30 | 1 min
65 | B31 | 0.6 min
66 | B32 | 0.9 min
67 | B33 | 0.6 min
68 | B34 | 0.8 min
